The target of this assay is rat GLP-1 receptor (rat) (UniProt P32301). The experiment in a line: cell-based or functional assay.
In turn, “Exendin-4(1-31) (PEAPTD)2 mTf fusion protein (ligand)” had a Potency (nM), cAMP accumulation in CHO-GLP-1R cells of 0.33 nM.

Substance “GLP-1(7-37,A8G,K34A) (PEAPTD)2 (SEQ ID NO: 5) mTf fusion protein (from UniProt P01275 98-128) (ligand)” gave a Potency (nM), cAMP accumulation in CHO-GLP-1R cells of 1.3 nM.

Substance “Exendin-4(1-30) (PEAPTD)2 mTf fusion protein (ligand)” showed a Potency (nM), cAMP accumulation in CHO-GLP-1R cells of 0.85 nM.

The values above are taken from patent publication US20090239795A1.
